Laboratory results taken from US20250215412A1 (NOVOZYMES A S, published 2025).

Legend:
Assay in all cases: cell-based or functional assay
[1] = target: T1, Chryseobacterium sp-62563 deamidase V190Q (Chryseobacterium sp-62563)
T1 chain: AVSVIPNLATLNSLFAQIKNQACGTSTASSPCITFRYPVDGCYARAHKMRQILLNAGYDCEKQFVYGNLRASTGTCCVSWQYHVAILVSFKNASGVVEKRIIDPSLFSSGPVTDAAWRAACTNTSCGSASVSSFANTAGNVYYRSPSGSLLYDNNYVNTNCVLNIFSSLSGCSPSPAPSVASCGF

[2] = target: T2, Chryseobacterium sp-62563 deamidase Y261P (Chryseobacterium sp-62563)
T2 chain: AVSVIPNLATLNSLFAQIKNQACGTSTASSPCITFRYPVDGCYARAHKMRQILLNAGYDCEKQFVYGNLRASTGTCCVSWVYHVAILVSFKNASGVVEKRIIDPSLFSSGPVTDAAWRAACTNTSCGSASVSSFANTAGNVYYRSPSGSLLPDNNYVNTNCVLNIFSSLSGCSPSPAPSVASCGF

[3] = target: T3, Chryseobacterium sp-62563 deamidase V190D (Chryseobacterium sp-62563)
T3 chain: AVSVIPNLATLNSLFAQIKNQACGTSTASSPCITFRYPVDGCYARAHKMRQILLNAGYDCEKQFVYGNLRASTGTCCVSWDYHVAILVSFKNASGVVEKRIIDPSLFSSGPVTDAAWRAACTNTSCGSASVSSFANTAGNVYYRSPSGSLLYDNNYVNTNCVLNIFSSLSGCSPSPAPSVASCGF

[4] = target: T4, Chryseobacterium sp-62563 deamidase L260K (Chryseobacterium sp-62563)
T4 chain: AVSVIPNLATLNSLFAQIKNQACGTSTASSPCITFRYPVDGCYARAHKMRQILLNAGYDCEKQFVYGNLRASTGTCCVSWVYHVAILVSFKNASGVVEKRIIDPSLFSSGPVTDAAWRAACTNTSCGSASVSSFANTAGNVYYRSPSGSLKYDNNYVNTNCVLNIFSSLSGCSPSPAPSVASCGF

[5] = target: T5, Chryseobacterium sp-62563 deamidase V190F (Chryseobacterium sp-62563)
T5 chain: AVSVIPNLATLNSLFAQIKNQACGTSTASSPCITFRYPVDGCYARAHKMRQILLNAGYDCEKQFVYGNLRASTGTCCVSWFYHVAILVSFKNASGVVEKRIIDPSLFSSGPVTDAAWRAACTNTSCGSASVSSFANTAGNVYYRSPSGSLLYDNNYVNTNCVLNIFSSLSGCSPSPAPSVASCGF

[6] = target: T6, Chryseobacterium sp-62563 deamidase V190G (Chryseobacterium sp-62563)
T6 chain: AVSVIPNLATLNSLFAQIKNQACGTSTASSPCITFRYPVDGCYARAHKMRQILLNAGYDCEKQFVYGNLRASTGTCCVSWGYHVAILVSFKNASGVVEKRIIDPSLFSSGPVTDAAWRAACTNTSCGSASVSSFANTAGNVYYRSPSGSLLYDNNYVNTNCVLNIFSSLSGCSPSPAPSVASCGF

[7] = target: T7, Chryseobacterium sp-62563 deamidase L260E (Chryseobacterium sp-62563)
T7 chain: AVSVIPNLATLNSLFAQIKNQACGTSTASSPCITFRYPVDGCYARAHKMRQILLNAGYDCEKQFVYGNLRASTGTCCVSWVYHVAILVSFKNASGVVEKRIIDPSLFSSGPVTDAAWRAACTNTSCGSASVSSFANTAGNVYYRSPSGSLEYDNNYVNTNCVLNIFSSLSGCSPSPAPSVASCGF

[8] = target: T8, Chryseobacterium sp-62563 deamidase V190K (Chryseobacterium sp-62563)
T8 chain: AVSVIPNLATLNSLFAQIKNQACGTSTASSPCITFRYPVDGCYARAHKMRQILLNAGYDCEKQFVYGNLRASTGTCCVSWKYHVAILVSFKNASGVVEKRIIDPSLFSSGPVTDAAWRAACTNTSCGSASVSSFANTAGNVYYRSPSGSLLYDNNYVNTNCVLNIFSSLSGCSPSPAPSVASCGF

Relative activity of maturated deamidase [1]: 96 % initial rate
Relative activity of maturated deamidase [2]: 32 % initial rate
Relative activity of maturated deamidase [3]: 30 % initial rate
Relative activity of maturated deamidase [4]: 73 % initial rate
Relative activity of maturated deamidase [5]: ≥ 100 % initial rate
Relative activity of maturated deamidase [6]: ≥ 100 % initial rate
Relative activity of maturated deamidase [7]: 53 % initial rate
Relative activity of maturated deamidase [8]: 36 % initial rate
B1: Chryseobacterium sp-62563 propeptide (first polypeptide, propeptide domain), wildtype (other)
chain: NQDPNLVAKESNETAMKDFGKTVPVGIEKEDGKFKISFMVTAQPYEIKDSKENAAYISMIKTAVENETPIHVFLKANTNEIAKVDKATDDDIRYFKSVFTKEVKEENRK
